# Molecular target: FLAG-Aac2 (S. cerevisiae) (UniProt P18239)
# Assay: co-IP
# Sequence of UniProt P18239 (P18239 whole entry): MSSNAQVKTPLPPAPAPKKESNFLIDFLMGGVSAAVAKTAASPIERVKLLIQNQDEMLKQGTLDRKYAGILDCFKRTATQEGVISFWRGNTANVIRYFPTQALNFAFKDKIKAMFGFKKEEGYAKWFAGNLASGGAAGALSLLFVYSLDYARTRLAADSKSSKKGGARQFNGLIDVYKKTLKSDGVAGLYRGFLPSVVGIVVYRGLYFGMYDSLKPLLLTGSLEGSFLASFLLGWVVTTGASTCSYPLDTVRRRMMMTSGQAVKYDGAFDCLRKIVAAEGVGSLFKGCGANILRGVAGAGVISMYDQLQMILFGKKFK
row,Substance,"percent decrease of the amount co-immunoprecipitated after BKA, against CATR"
1,respiratory complex IV (from UniProt P00401 1-534; P04037 26-155),50%
2,respiratory complex III (from UniProt P07256 27-457; P07257 17-368; P08067 31-215; P00127 1-147),25%
